Results on 9 substances are retold here after patent publication US6432922.

Holding throughout (experiment): cell-based or functional assay
Assay [1] has as its target Human rt-PA (Activase), obtained from Genentech Inc. (human) (UniProt P00750).
The target in assay [2] is Purified human plasmin, obtained from Enzyme Research Laboratories, Inc. (human) (UniProt P00747).
The target in assay [3] is Urokinase (Abbokinase), manufactured by Abbott Laboratories (UniProt P00749).

Where “and” joins values, the source holds several entries; their conditions need not be identical. Equal values may be shown once.

Purified human plasmin, obtained from Enzyme Research Laboratories, Inc. (human), sequence (P00747 97-810 limits assumed): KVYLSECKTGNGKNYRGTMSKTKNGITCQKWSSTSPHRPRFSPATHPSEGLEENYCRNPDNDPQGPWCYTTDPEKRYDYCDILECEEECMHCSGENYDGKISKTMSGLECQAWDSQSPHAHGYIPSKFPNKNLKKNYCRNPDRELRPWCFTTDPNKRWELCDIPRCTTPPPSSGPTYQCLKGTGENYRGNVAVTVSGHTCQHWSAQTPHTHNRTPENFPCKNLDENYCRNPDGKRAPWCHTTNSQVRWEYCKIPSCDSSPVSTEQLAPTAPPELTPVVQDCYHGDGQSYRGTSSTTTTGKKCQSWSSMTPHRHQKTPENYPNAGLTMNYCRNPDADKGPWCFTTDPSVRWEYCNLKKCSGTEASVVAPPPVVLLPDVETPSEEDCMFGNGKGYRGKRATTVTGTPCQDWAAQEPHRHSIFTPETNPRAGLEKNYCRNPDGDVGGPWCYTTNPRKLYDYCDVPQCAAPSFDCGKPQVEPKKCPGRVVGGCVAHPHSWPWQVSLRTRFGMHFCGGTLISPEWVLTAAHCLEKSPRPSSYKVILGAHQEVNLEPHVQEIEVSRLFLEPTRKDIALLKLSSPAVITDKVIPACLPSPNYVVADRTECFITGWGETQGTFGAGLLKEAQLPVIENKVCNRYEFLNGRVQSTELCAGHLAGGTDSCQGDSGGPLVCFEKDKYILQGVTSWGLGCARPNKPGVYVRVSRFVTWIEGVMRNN
Human rt-PA (Activase), obtained from Genentech Inc. (human), sequence (P00750 36-562 limits assumed): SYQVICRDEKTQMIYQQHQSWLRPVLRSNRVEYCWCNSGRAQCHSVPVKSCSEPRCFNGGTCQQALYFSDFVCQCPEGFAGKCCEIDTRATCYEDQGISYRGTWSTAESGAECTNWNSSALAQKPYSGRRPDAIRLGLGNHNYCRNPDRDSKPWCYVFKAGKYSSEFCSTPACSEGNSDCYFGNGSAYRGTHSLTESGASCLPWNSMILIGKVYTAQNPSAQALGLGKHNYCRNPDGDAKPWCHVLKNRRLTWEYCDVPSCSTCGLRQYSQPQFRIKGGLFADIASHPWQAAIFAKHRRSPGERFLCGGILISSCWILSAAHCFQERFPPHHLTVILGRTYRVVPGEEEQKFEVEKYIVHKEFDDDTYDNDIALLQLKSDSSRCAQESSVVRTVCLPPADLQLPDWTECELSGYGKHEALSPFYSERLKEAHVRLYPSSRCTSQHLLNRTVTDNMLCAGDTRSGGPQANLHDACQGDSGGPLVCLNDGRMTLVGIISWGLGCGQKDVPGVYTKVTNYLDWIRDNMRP

With “benzyloxycarbonyl-D-seryl-L-β-cyanoalanine-argininal (peptide)”, the IC50 – broadly, the concentration that inhibits the measured activity by half – in assay [1] was more than 2500 nM; in assay [2], > 250 nM and < 2500 nM; in assay [3], less than 100 nM.
For the substance “benzenesulfonyl-D-seryl-azetidyl-argininal, trifluoroacetate salt (peptide)”, the 50% inhibitory concentration (IC50) was > 250 nM and < 2500 nM in assay [2]; less than 100 nM in assay [3].
With “benzyloxycarbonyl-D-seryl-L-3,4-dehydroprolyl-argininal (peptide)”, the IC50 in assay [1] is more than 2500 nM; in assay [2], > 100 nM and < 250 nM; in assay [3], less than 100 nM.
In the case of “benzyloxycarbonyl-D-seryl-L-azetidine-2-carbonyl-argininal (peptide)”, the IC50 was more than 2500 nM in assay [1]; > 250 nM and < 2500 nM in assay [2]; less than 100 nM in assay [3].
With “benzyloxycarbonyl-D-seryl-L-propargylglycyl-argininal (peptide)”, the IC50 in assay [1] was more than 2500 nM; in assay [2], > 250 nM and < 2500 nM; in assay [3], less than 100 nM.
Consider “benzyloxycarbonyl-D-seryl-2-norvalyl-argininal (peptide)”, for which the IC50 in assay [1] is more than 2500 nM; in assay [3], > 100 nM and < 250 nM.
In the case of “benzyloxycarbonyl-D-seryl-2-aminobutanoyl-argininal (peptide)”, the results for the concentration for half-maximal inhibition (IC50) in assay [1] and in assay [3] were more than 2500 nM and less than 100 nM, respectively.
“benzyloxycarbonyl-D-seryl-L-allylglycyl-argininal (peptide)”: the IC50 in assay [1] is more than 2500 nM; in assay [2] it was > 250 nM and < 2500 nM; in assay [3] it was > 100 nM and < 250 nM.
With “benzyloxycarbonyl-D-seryl-pipecolyl-argininal (peptide)”, the IC50 in assay [1] was more than 2500 nM; in assay [3], > 100 nM and < 250 nM.
